Assay results from patent US20040171074A1, “Structures of substrate binding pockets of SCF complexes” (MOUNT SINAI HOSPITAL, priority 2002, published 2004).
Positions count from the first letter of the chain named. Names and notes keep the numbering of the source. “Also recorded” adds a separate entry of the source.

B1: Y548F: mutant cdc4 polypeptide (protein)
chain: MGSFPLAEFPLRDIPVPYSYRVSGGIASSGSVTALVTAAGTHRNSSTAKTVETEDGEEDIDEYQRKRAAGSGESTPERSDFKRVKHDNHKTLHPVNLQNTGAASVDNDGLHNLTDISNDAEKLLMSVDDGSAAPSTLSVNMGVASHNVAAPTTVNAATITGSDVSNNVNSATINNPMEEGALPLSPTASSPGTTTPLAKTTKTINNNNNIADLIESKDSIISPEYLSDEIFSAINNNLPHAYFKNLLFRLVANMDRSELSDLGTLIKDNLKRDLITSLPFEISLKIFNYLQFEDIINSLGVSQNWNKIIRKSTSLWKKLLISENFVSPKGFNSLNLKLSQKYPKLSQQDRLRLSFLENIFILKNWYNPKFVPQRTTLRGHMTSVITCLQFEDNYVITGADDKMIRVYDSINKKFLLQLSGHDGGVWALKYAHGGILVSGSTDRTVRVWDIKKGCCTHVFKGHNSTVRCLDIVEYKNIKYIVTGSRDNTLHVWKLPKESSVPDHGEEHDYPLVFHTPEENPYFVGVLRGHMASVRTVSGHGNIVVSGSFDNTLIVWDVAQMKCLYILSGHTDRIYSTIYDHERKRCISASMDTTIRIWDLENIWNNGECSYATNSASPCAKILGAMYTLQGHTALVGLLRLSDKFLVSAAADGSIRGWDANDYSRKFSYHHTNLSAITTFYVSDNILVSGSENQFNIYNLRSGKLVHANILKDADQIWSVNFKGKTLVAAVEKDGQSFLEILDFSKASKINYVSNPVNSSSSSLESISTSLGLTRTTIIP
B2: K402A: mutant cdc4 polypeptide (protein)
chain: B1 chain with K402A, F548Y
B3: R443A: mutant cdc4 polypeptide (protein)
chain: B1 chain with R443A, F548Y
B4: T441I/T465I: double mutant cdc4 polypeptide (protein)
chain: B1 chain with T441I, T465I, F548Y
B5: R572A: mutant cdc4 polypeptide (protein)
chain: B1 chain with F548Y, R572A

Legend:
[1] = system: cdc4Δ strain; experiment: plasmid shuffle assay: complementation of a cdc4Δ strain by CDC4 alleles; assay type: cell-based, yeast; settings: viability of cdc4Δ strain on 5-FOA, 2 days at 30° C.
Experimental: (§1) All mutants on a TRP1 ARS CEN plasmid were transformed into a cdc4Δ strain (MT 1259) containing a wildtype copy of CDC4 on a URA3 ARS CEN plasmid. Cells were plated on either Trp^−Ura^− or 5-FOA medium for 2 days at 30° C. Viable cells on 5-FOA were grown in Trp medium and transformed with either wild type GAL1-SIC1, GAL1-SIC T45A, or GAL1-SIC T33V on a LEU2 ARS CEN pasmid. Cells were then plated on Leu- Trp-plates containing either glucose or galactose and incubated for 2 days at 30° C.
(§2) Cdc4 functional assays. CDC4 mutant alleles were assessed for complementation of a cdc4A strain in a plasmid shuffle assay (Nash et al., 2001). Sensitivity to SIC1 dosage was determined by transformation with pMT837 (GAL1-SIC1) or pMT767 (GAL1-SIC1^T33V) and plating on glucose medium or galactose medium. For in vitro capture of phospho-Sic1 by Cdc4, 0.5 μg of bacterially-expressed ^HIS6Sic1 was phosphorylated with immobilized Cln2-Cdc28 kinase from baculovirus-infected Sf9 cells and then incubated with 1 μg of immobilized wild type or mutant Cdc4^263-744-GST-Skp1, at 4° C. for 1 hr, washed 4 times and visualized by anti-Sic1 immunoblot. For isoelectric focusing (IEF)-2D gel analyses, an evenly distributed pool of phospho-Sic1 isoforms was generated by combining different time points in a Sic1 phosphorylation reaction. 2.5 μg of the phospho-Sic1 pool was bound to 5 μg of immobilized wild type or mutant Cdc4^1-744-GST-Skp1. Captured isoforms were separated by denaturing IEF-2D gel electrophoresis using pH3-10NL Immobiline gel strips (Amersham) and visualized by anti-Sic1 immunoblot. Alternatively, the pool of phospho-Sic1 isoforms was incubated in solution with a ubiquitination reaction mix containing ATP, ubiquitin, yeast E1, Cdc34 and either wild type or mutant SCF^Cdc4 complex, composed of a 1:1 ratio of bacterial Cdc4-GST-Skp1 and insect cell-produced Cdc53-Rbx1, at 30° C. for 1 h as previously described (Nash et al., 2001).

[2] = system: phospho-Sic1; experiment: P-Sic1 pull down: in vitro capture of phospho-Sic1 on immobilized wild type or mutant Cdc4-GST-Skp1, anti-Sic1 immunoblot; assay type: binding, yeast; settings: Sic1 phosphorylated with Cln2-Cdc28, captured onto GST-Skp1/Cdc4 resin, anti-Sic1 detection
Experimental: (§3) Mutational analysis of the CPD binding surface. Mutants were tested in vitro by ability to bind phosphorylated Sic1 and then captured onto GST-Skp1/Cdc4 resin and detected with anti-sic1 antibody. Mutants were tested in vivo by ability to degrade GAL1-SIC1 or various phosphorylation mutants. Sites are as follows: 3=Thr 33, Thr 45, Ser 76; 4=Thr 5, Thr 33, Thr 45, Ser 76; 5=Thr 2, Thr 5, Thr 33, Thr 45, Ser 76; 6=Thr 2, Thr 5, Thr 33, Thr 45, Ser 69, Ser 76; 7=Thr 2, Thr 5, Thr 33, Thr 45, Ser 69, Ser 76, Ser 80. GAL1-SIC1 plasmids were transformed into a cdc4Δ strain containing a copy of CDC4 on a TRP1 ARS CEN plasmid. Strains were incubated for 2 days at 30° C.
Bacterially expressed His6-Sic1 was phosphorylated with Cln2-Cdc28 kinase purified from baculovirus infected Sf9 cells as described before (Nature paper). 1 ug of WT or mutant Cdc4-GST-Skp1, immoblized on GSH-Sepharose resin, was incubated with 0.5 ug phospho-Sic1 at 4 C for 1 h and washed 4 times. Captured complexes were resolved on SDS-PAGE and Sic1 visualized by anti-Sic1 Western blotting and ECL. For IEF-2D analysis, several Sic1 phosphorylation reactions were carried out for different time periods to obtain a spectrum of Sic1 that were phosphorylated at different numbers of its nine CDK sites. This pool of phospho-Sic1 (2.5 ug) was incubated with 5 μg of WT or mutant Cdc4-GST-Skp1 as described above. Different phosphorylation states of Sic1 were separated by denaturing isoelectric focusing (IEF)-2D gel electrophoresis and visualized by anti-Sic1 Western blotting and ECL. IEF was performed using pH 3-10NL Immobiline gel strips and IPGphore IEF system (Amersham pharmacia).
as §2

[3] = system: cdc4Δ strain overexpressing SIC1; experiment: sensitivity to SIC1 dosage: GAL1-SIC1 overexpression in strains bearing CDC4 alleles; assay type: cell-based, yeast; settings: for gal Sic1T33V: GAL1-SIC1 T33V (partially stabilized Sic1); for gal Sic1T33V / gal Sic1T45A / gal Sic1 wt: galactose, 2 days at 30° C.; for gal Sic1T45A: GAL1-SIC1 T45A; for gal Sic1 wt: GAL1-SIC1 wild type; for viability / sensitivity to increased SIC1 dosage: Sic1 wt or stabilized Sic1(T33V) or Sic1(T45A) over-expressed under a galactose promoter
Experimental: as §3, §1
Since the cell viability assay nay be masking subtle functional roles for the conserved Cdc4 residues, function was assayed in vivo under more stringent conditions in which Sic1 wt or the stabilized mutants, Sic1 (T33V) or Sic1(T45A) are over-expressed under a galactose promoter. This should amplify defects in cdc4 function. Under these conditions, Trp 717, Tyr 548 and the double mutant K404D/R443D are lethal showing that these residues are in fact important for functions
as §2

Molecule | shuffle [1] | shuffle ([1]; listed as Tyr 548) | shuffle ([1]; listed as Tyr548) | P-Sic1 pull down [2] | P-Sic1 pull down ([2]; listed as Tyr 548) | gal Sic1T33V [3] | gal Sic1T33V ([3]; listed as Tyr548) | gal Sic1T45A [3] | gal Sic1 wt [3] | viability / sensitivity to increased SIC1 dosage [3] | shuffle ([1]; listed as Lys402Ala) | P-Sic1 pull down ([2]; listed as Lys402Ala) | shuffle ([1]; listed as Arg443Ala) | P-Sic1 pull down ([2]; listed as Arg443Ala) | shuffle ([1]; listed as Arg572) | P-Sic1 pull down ([2]; listed as Arg572) | gal Sic1T33V ([3]; listed as Arg 572)
B1 | alive | fractional | did not cause loss of viability | no bind | compromised | dead | dosage sensitivity | dead | alive | lethal | – | – | – | – | – | – | –
B2 | alive | – | – | bind | – | alive | – | dead | alive | indistinguishable from wild type | viable; also recorded: indistinguishable from wild type | fully competent; also recorded: indistinguishable from wild type | – | – | – | – | –
B3 | alive | – | – | bind | – | alive | – | dead | alive | indistinguishable from wild type | – | – | viable; also recorded: indistinguishable from wild type | fully competent; also recorded: indistinguishable from wild type | – | – | –
B4 | viable | – | – | fully competent | – | – | – | – | – | – | – | – | – | – | – | – | –
B5 | alive | – | – | no bind | – | dead | – | dead | alive | – | – | – | – | – | same behavior | inablity to bind | same effect
